From paper PMC3142331 (Molecular cell, 2011)
Blank lines part the entries; values can stand above or below the binder they belong to. Square brackets hold non-standard residues; d marks the D form. Ends that are not written are not given here. fluorescein = fluorescein label (fluorescent) on the peptide N-terminus; pS = N[C@@H](COP(=O)(O)O)C(=O)O

Assays:
[1] = biological target: tetraheptad CTD-Ser5-PO4 peptide (phosphorylated at Ser5 (CTD-Ser5-PO4)); test: cell-based or functional assay
[2] = biological target: T1, fluorescein labeled phosphorylated CTD peptide (Fluor-S2P3T4S5PP6S7Y1S2PP3T4S5); test: fluorescence polarisation
T1 peptide: fluorescein-SPT[pS]PSY[pS]PTS

fold stimulation of guanylylation by CTD Ser5-PO4 [1]: 2.1 fold
B1: Mce R330A (domain or fragment)
chain: not shown

fold stimulation of guanylylation by CTD Ser5-PO4 [1]: 1.6 fold
B2: Mce R330A/K331A/R386A (domain or fragment)
chain: not shown

fold stimulation of guanylylation by CTD Ser5-PO4 [1]: 1.9 fold
B3: Mce R330A/K331A (domain or fragment)
chain: not shown

fold reduction of affinity against wild-type Mce [2]: ~1.8 fold
B4: Mce-K294A (domain or fragment)
chain: not shown

fold stimulation of guanylylation in the presence of CTD Ser5-PO4 [1]: 5.9 fold
B5: Mce-C375R (domain or fragment)
chain: not shown

fold decrease in affinity against wild-type Mce [2]: 1.9 fold
B6: Mce C383Y (domain or fragment)
chain: not shown
